Where two headings read alike, the source gives them in different places.
T1: XPF-HLD (human, UniProt Q92889 12-672)
T1 sequence: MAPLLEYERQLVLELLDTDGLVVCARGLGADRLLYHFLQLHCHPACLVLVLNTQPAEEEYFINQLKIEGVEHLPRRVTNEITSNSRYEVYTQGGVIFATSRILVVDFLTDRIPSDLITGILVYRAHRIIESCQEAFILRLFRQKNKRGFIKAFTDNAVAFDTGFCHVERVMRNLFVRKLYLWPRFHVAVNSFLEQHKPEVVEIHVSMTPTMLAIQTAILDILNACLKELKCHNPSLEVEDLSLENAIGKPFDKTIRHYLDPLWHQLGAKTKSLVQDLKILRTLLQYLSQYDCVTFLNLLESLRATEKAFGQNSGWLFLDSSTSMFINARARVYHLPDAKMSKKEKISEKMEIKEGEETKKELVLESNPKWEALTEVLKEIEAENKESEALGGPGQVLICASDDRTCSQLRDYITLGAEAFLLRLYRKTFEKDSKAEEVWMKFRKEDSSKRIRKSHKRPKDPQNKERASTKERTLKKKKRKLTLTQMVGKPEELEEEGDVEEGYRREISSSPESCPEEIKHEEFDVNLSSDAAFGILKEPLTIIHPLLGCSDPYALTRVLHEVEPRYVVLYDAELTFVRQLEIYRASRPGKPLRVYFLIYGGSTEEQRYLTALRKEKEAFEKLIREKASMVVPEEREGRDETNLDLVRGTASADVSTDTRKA

T2: XPF;ERCC1 (human;human, UniProt Q92889;P07992 12-916;1-297, |)
T2 sequence 1: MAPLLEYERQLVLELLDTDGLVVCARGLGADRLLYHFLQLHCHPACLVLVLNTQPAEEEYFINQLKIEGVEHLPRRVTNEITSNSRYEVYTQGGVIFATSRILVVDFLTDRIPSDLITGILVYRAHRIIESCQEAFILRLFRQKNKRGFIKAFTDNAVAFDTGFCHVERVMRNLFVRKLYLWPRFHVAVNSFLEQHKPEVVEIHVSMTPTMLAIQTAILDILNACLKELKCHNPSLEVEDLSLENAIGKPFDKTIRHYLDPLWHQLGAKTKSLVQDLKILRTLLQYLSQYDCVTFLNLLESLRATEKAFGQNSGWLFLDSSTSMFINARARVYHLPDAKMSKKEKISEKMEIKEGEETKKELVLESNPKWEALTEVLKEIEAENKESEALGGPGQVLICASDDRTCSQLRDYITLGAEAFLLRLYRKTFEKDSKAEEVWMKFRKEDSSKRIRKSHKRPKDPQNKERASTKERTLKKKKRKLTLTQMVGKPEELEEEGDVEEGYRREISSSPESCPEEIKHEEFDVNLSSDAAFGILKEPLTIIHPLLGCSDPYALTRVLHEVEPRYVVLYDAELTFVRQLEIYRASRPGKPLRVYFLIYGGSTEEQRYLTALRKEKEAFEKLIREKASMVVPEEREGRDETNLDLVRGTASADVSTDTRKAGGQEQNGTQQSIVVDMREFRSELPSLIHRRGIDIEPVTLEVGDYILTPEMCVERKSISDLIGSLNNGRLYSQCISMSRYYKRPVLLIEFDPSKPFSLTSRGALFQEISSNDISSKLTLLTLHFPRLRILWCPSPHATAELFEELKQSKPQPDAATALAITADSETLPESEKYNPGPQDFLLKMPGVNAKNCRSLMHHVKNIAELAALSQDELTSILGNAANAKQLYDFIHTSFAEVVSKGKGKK
T2 sequence 2: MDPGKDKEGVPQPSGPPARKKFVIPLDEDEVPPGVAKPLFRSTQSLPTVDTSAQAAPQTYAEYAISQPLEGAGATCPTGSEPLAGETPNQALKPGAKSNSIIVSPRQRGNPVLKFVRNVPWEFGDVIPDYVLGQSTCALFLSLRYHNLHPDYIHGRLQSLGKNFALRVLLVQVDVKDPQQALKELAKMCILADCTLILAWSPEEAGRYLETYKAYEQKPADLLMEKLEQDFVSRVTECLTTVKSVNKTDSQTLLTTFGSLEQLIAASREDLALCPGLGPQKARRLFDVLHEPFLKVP


Legend:
XPF-HLD [1] = target: T1, XPF-HLD; experiment: fluorescence polarization
XPF;ERCC1 = target: T2, XPF;ERCC1; experiment: SPR
XPF-HLD [2] = target: T1, XPF-HLD; experiment: fluorescence polarization; remark: listed apart in the source
XPF-HLD [3] = target: T1, XPF-HLD; experiment: fluorescence polarization; remark: listed apart in the source

Binder	Kd (XPF-HLD [1])	binding result (XPF-HLD [3])	also measured
CAGCGCTCGGTTCCGAGCGCTG (structured_DNA) [2T stem-loop duplex (FP)]	217 nM	–	–
GCGCTCGGCGTTTTT (ssDNA) [15-mer single strand (FP)]	263 nM	–	–
CAGCGCTCGGTTCCGAGCGCTG (structured_DNA) [Duplex with 2T loop (stem10-loop2), SPR]	–	–	binding result (XPF;ERCC1): no binding
CAGCGCCTGGTTTTTTTTTTTTTTTTTTTTCCAGGCGCTG (structured_DNA) [Stem10-loop20 X=C Y=T]	–	–	Kd (XPF-HLD [2]): 63 nM
CAGCGCGGGGTTTTTTTTTTTTTTTTTTTTCCCCGCGCTG (structured_DNA) [Stem10-loop20 X=G Y=G]	–	binds	–
CAGCGCTTGGTTTTTTTTTTTTTTTTTTTTCCAAGCGCTG (structured_DNA) [Stem10-loop20 X=T Y=T]	–	binds	–
